Like-named read-outs stand apart in the source and are kept apart here. One block for each substance: values may come before it.
Legend:
[1] = target: Oregon Green-labeled DAT C13 peptide (not stated (human DAT is named for the β2-DAT8 constructs)); assay: fluorescence polarisation; saturation: PICK1 diluted to various concentrations, 20 nM OrG DAT C13; 50 mM Tris pH 7.4, 125 mM NaCl, 1 mM DTT, 0.01% Triton X-100; 30 min on ice
[2] = target: TAC-YFP-DAT C24 (C-terminus of the dopamine transporter on TAC-YFP) (not stated | not stated (human DAT is named for the β2-DAT8 constructs)); assay: supported cell membrane sheets (SCMS), confocal microscopy, competition binding; 100 nM labelled SNAP-PICK1 premixed with increasing unlabelled PICK1 WT, 120 min, on sheets expressing TAC-YFP-DAT; half maximal binding reported as Ki*
[3] = target: FLAG-β2 DAT8 LKI (rat (Rattus norvegicus) | human); assay: supported cell membrane sheets (SCMS), confocal microscopy, saturation binding of exchanged dimers; monomers purified in 0.1% TX-100, mixed and diluted at least 100-times to form WT/WT or WT/A87L dimers (A87L in 4 times excess); sheets expressing LKV or LKI; read in the WT and the A87L channel; apparent (Kd*)
[4] = target: FLAG-β2 DAT8 LKI (rat (Rattus norvegicus) | human); assay: supported cell membrane sheets (SCMS), confocal microscopy, dissociation time course; PICK1 dissociation from sheets expressing LKV (two-state fit) or LKI (one-state fit)
[5] = target: TAC-YFP-DAT C24 (C-terminus of the dopamine transporter on TAC-YFP) (not stated | not stated (human DAT is named for the β2-DAT8 constructs)); assay: supported cell membrane sheets (SCMS), confocal microscopy, association time course; PICK1 binding as a function of incubation time; PICK1 100 nM for LKV and LKI
[6] = target: FLAG-β2 DAT8 LKI (rat (Rattus norvegicus) | human); assay: as above
[7] = target: FLAG-β2 DAT8 LKA (rat (Rattus norvegicus) | human); assay: supported cell membrane sheets (SCMS), confocal microscopy, saturation binding; labelled PICK1 in sheet buffer (120 mM KCl, 2 mM MgCl2, 0.1 mM CaCl2, 10 mM HEPES, 30 mM glucose pH 7.35) overlaid for 2 h on ice on sheets from transfected HEK293 GripTite cells; PICK1 signal divided by receptor signal; apparent affinity (Kd*), headed EC50 in the tables
[8] = target: TAC-YFP-DAT C24 (C-terminus of the dopamine transporter on TAC-YFP) (not stated | not stated (human DAT is named for the β2-DAT8 constructs)); assay: as above
[9] = target: FLAG-β2 DAT8 LKI (rat (Rattus norvegicus) | human); assay: as above
[10] = target: TAC-YFP-GluA2 (24 C-terminal residues of GluA2 on the IL-2 receptor α-subunit fused to YFP) (not stated | rat (Rattus norvegicus)); assay: as above
[11] = target: FLAG-β2 DAT8 LKI (rat (Rattus norvegicus) | human); assay: supported cell membrane sheets (SCMS), confocal microscopy, association time course; PICK1 binding as a function of incubation time; PICK1 100 nM for LKV and LKI; remark: listed apart in the source

Kd [1]: 9000 nM
IC50 [2]: 29 nM
Substance: PICK1 WT without SNAP-tag (from UniProt Q9EP80 1-416) (natural protein)

EC50 [3]: 123 nM
Substance: PICK1 WT/A87L heterodimer (from UniProt Q9EP80 1-416; Q9EP80 1-416) (complex)

dissociation half-life [4]: 7.18 h
time to half maximum binding [5]: 19 min
time to half maximum binding [6]: 14 min
EC50 [7]: 59 nM
EC50 [8]: 47 nM
EC50 [9]: 29 nM
Kd* (apparent affinity) [9]: 39 nM
EC50 [10]: 73 nM
time to half maximum binding [11]: 11 min
Substance: SNAP-PICK1 WT (PICK1 with an N-terminal SNAP-tag, fluorescently labelled) (from UniProt Q9EP80 1-416) (natural protein)

— paper PMC6345565
